Results published in publication PMC11407943, “Cdc14 phosphatases use an intramolecular pseudosubstrate motif to stimulate and regulate catalysis” (The Journal of Biological Chemistry, 2024).
Numbering of substitutions follows the chain as printed. Names may count otherwise.

Columns and labels:
[1] = Steady-state kinetics of Cdc14 enzyme variants toward DiFMUP
Procedure: B, initial velocities as a function of increasing DiFMUP concentration were measured under steady-state conditions for the indicated ScCdc14 variants. […] Data are average values from at least three independent measurements. Error bars are SDs. Lines are best fits for the Michaelis–Menten equation. C, to better visualize differences in KM, all Vmax values from data in panel A were normalized to 1. D, top: the general PTP-catalyzed reaction scheme with associated rate constants ([50]), where E is enzyme, S is phosphorylated substrate, P is dephosphorylated product, Pi is inorganic phosphate, and E-Pi is the covalent phosphoenzyme intermediate. For simplicity, the reverse catalytic steps are omitted and considered negligible under our experimental conditions. Bottom: definitions of kcat and KM for enzymes following the two step PTP reaction mechanism ([47]). E, a representative presteady-state reaction progress graph for reaction of the indicated ScCdc14 enzyme variants with 200 μM DiFMUP, measured in a stopped flow spectrofluorometer. Data were fit with Equation 1 (see Experimental procedures) to generate rates of the burst phase (kburst) of the reaction. F, kburst was plotted as a function of substrate concentration from presteady-state kinetic measurements with the substrate DiFMUP and the indicated ScCdc14 enzyme variants. Data are averages of three independent measurements and error bars are SDs. Data were fit in GraphPad Prism with Equation 2 (Experimental procedures).
D–E, steady-state kinetic analyses with hCdc14A enzyme variants toward DiFMUP as in Figure 2, B and C. […] In E, Vmax values from data in panel D were normalized to 1 to show differences in KM.
Data from velocity versus substrate concentration plots were fit with the Michaelis–Menten equation in GraphPad Prism (https://www.graphpad.com/) to determine steady-state kinetic parameters kcat and KM. For trans peptide stimulation assays, DiFMUP was used at a single concentration well above the measured KM for each enzyme.

[2] = cited from earlier work
Excerpt: To experimentally characterize the SLiCE motif mechanism, we expressed and purified several recombinant ScCdc14 enzyme variants (Figs. 2A and S2A).

[3] = Catalytic efficiency (kcat/KM) on pooled phosphopeptides by LC-MS; conditions: 375 nM each pooled phosphopeptide, 30 °C, 10 to 40 min; for catalytic efficiency (kcat/KM) for high affinity substrates: enzyme 0.1–1 μM, at least four independent measurements
Procedure: Cdc14 catalytic efficiencies toward a pooled set of phosphopeptide variants were measured by LC-MS exactly as described ([49]). […] Reactions were initiated by addition of Cdc14 enzymes (0.1–1 μM final concentration) in 200 μl Cdc14 reaction buffer and incubated at 30 °C for 10 to 40 min 60 μl aliquots were removed and mixed with an equal volume 5% formic acid at desired times to terminate the reactions. Peptides were desalted on C18 spin columns (Thermo Fisher Scientific) and dried by vacuum centrifugation prior to LC-MS analysis on an LTQ Orbitrap Velos mass spectrometer. Extracted ion chromatograms for each substrate and product peptide were generated and integrated using Skyline software ([65]) (https://skyline.ms/project/home/begin.view) and catalytic efficiency calculations from the data were performed as described ([28], [47]).

[4] = Presteady-state (stopped-flow) kinetics of Cdc14 enzyme variants with DiFMUP; type: biochemical; conditions: 23 °C, 200 μM DiFMUP in representative ScCdc14 progress curve, compared to ScCdc14^1-449
Procedure: SLiCE motif is boxed in gray.
Presteady-state kinetic analysis was performed as described previously ([34]). Enzymes were exchanged into Cdc14 reaction buffer using a desalting column and flash-frozen in liquid nitrogen. Prior to use, aliquots were thawed and clarified at 16,000g for 5 min to remove any insoluble material and protein concentration was subsequently determined by Bradford assay. Presteady-state measurements were made by mixing enzyme and varying DiFMUP concentrations at 23 °C on an SFM-3000 stopped-flow instrument equipped with a MOS-200/M spectrophotometer (BioLogic) as described ([64]). The excitation wavelength was 390-nm and emission was selected using a 409-nm long pass filter (Semrock FF02-409/LP-25). A standard curve was generated by measuring the fluorescence of defined concentrations of the product DiFMU reconstituted in Cdc14 reaction buffer under identical conditions. Raw data were fit with Equation 1 in Prism:(1) Y=At+B(1−e^−bt)+C

[5] = DiFMUP, pH 7.5, 30 °C, S429 phosphosite mutant series, printed "(Fig. 6)" for ScCdc141-449

B1: ScCdc14^1-374: catalytic domain alone lacking the SLiCE motif (protein)
chain: MRRSVYLDNTIEFLRGRVYLGAYDYTPEDTDELVFFTVEDAIFYNSFHLDFGPMNIGHLYRFAVIFHEILNDPENANKAVVFYSSASTRQRANAACMLCCYMILVQAWTPHQVLQPLAQVDPPFMPFRDAGYSNADFEITIQDVVYGVWRAKEKGLIDLHSFNLESYEKYEHVEFGDFNVLTPDFIAFASPQEDHPKGYLATKSSHLNQPFKSVLNFFANNNVQLVVRLNSHLYNKKHFEDIGIQHLDLIFEDGTCPDLSIVKNFVGAAETIIKRGGKIAVHCKAGLGRTGCLIGAHLIYTYGFTANECIGFLRFIRPGMVVGPQQHWLYLHQNDFREWKYTTRISLKPSEAIGGLYPLISLEEYRLQKKKLKD
modifications: left off: 6xHis, N-terminal, state not stated
With B1 the “decrease in kcat compared to ScCdc14^1-449” value ([1]; DiFMUP, steady state) was 16 fold.

B2: ScCdc14^S429E (protein, UniProt Q00684 1-551, looked up, variant S429E)
Tyrosine-protein phosphatase …: MRRSVYLDNTIEFLRGRVYLGAYDYTPEDTDELVFFTVEDAIFYNSFHLDFGPMNIGHLYRFAVIFHEILNDPENANKAVVFYSSASTRQRANAACMLCCYMILVQAWTPHQVLQPLAQVDPPFMPFRDAGYSNADFEITIQDVVYGVWRAKEKGLIDLHSFNLESYEKYEHVEFGDFNVLTPDFIAFASPQEDHPKGYLATKSSHLNQPFKSVLNFFANNNVQLVVRLNSHLYNKKHFEDIGIQHLDLIFEDGTCPDLSIVKNFVGAAETIIKRGGKIAVHCKAGLGRTGCLIGAHLIYTYGFTANECIGFLRFIRPGMVVGPQQHWLYLHQNDFREWKYTTRISLKPSEAIGGLYPLISLEEYRLQKKKLKDDKRVAQNNIEGELRDLTMTPPSNGHGALSARNSSQPSTANNGSNSFKSSAVPQTEPGQPRKGQNGSNTIEDINNNRNPTSHANRKVVIESNNSDDESMQDTNGTSNHYPKVSRKKNDISSASSSRMEDNEPSATNINNAADDTILRQLLPKNRRVTSGRRTTSAAGGIRKISGSIKK
Work on B2 yielded a kcat [1, 5] of 0.15 ± 0.01 s⁻¹.

B3: ScCdc14^1-449: truncation of S. cerevisiae Cdc14 that retains the SLiCE motif (protein)
chain: MRRSVYLDNTIEFLRGRVYLGAYDYTPEDTDELVFFTVEDAIFYNSFHLDFGPMNIGHLYRFAVIFHEILNDPENANKAVVFYSSASTRQRANAACMLCCYMILVQAWTPHQVLQPLAQVDPPFMPFRDAGYSNADFEITIQDVVYGVWRAKEKGLIDLHSFNLESYEKYEHVEFGDFNVLTPDFIAFASPQEDHPKGYLATKSSHLNQPFKSVLNFFANNNVQLVVRLNSHLYNKKHFEDIGIQHLDLIFEDGTCPDLSIVKNFVGAAETIIKRGGKIAVHCKAGLGRTGCLIGAHLIYTYGFTANECIGFLRFIRPGMVVGPQQHWLYLHQNDFREWKYTTRISLKPSEAIGGLYPLISLEEYRLQKKKLKDDKRVAQNNIEGELRDLTMTPPSNGHGALSARNSSQPSTANNGSNSFKSSAVPQTSPGQPRKGQNGSNTIEDINNN
modifications: left off: 6xHis, N-terminal, state not stated
For B3, the “activity compared with full-length ScCdc14” value [2] is given as “indistinguishable from full-length ScCdc14”, the kcat [1, 5] is given as 1.71 ± 0.24 s⁻¹ and the “catalytic efficiency (kcat/KM) for high affinity substrates” value [3] is given as “indistinguishable”.

B4: ScCdc14^P433A/K435A: SLiCE motif point mutant generated in ScCdc14^1-449 (protein)
chain: B3 chain with P433A, K435A
modifications: left off: 6xHis, N-terminal, state not stated
With B4 the “postburst linear rate (primarily reflecting k3)” value [4] was “greatly reduced”, the kcat ([1]; pH 7.5) was 0.27 ± 0.03 s⁻¹ and the “catalytic efficiency (kcat/KM) for low affinity substrates” value ([3]; compared to ScCdc14^1-449) was “modest, but consistent and statistically significant, increase in catalytic efficiency”. The “catalytic efficiency (kcat/KM) for high affinity substrates” value [3] was “indistinguishable”.
